Experiment [1] has as its target T1, rat alpha CGRP (SEQ ID NO: 82) (rat).
T1 construct: also called rat αCGRP; rat α-CGRP
T1 peptide: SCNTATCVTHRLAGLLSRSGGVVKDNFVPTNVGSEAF
Nature of the experiment: competition ELISA in solution; free mutein detected on plate-bound biotinylated CGRP. How it is done: (§1) Binding of lipocalin muteins to alpha and beta CGRP from human and rat in solution was tested in vitro using a competition ELISA assay format (FIG. 1). In this experiment, a constant concentration of non-biotinylated CGRP (0.5 μM) was incubated for 1 h with variable concentrations of lipocalin muteins SEQ ID NO: 2, SEQ ID NO: 3, SEQ ID NO: 4; SEQ ID NO: 5, and SEQ ID NO: 6. After this pre-incubation in solution, an aliquot of the lipocalin mutein/CGRP mixture was transferred to an ELISA plate coated with Neutravidin-captured human alpha CGRP-bio to measure the concentration of lipocalin muteins that was not blocked by non-biotinylated human alpha CGRP (SEQ ID NO: 80) and therefore could still be bound by the immobilized human alpha CGRP-bio (FIG. 1). This procedure was performed on another relevant CGRP species (human beta CGRP (SEQ ID NO: 81), rat alpha CGRP (SEQ ID NO: 82), rat beta CGRP (SEQ ID NO: 83)). All incubation steps were performed with shaking at 300 rpm, and the plate was washed after each incubation step with 80 μL PBS-T buffer (PBS, 0.05% Tween 20) for five times using a Biotek ELx405 select CW washer. In the first step, a 384-well ELISA plate was coated with 20 μL of Neutravidin at a concentration of 5 μg/mL in PBS over night at 4° C. After washing, the plate was blocked with 60 μL PBS-T/BSA (2% BSA in PBS containing 0.05% Tween 20) for 1 h at room temperature.
(§2) To allow for detection and quantification of plate-bound lipocalin muteins, the residual supernatants were discarded and 20 μL HRP-labeled anti-hNGAL antibody was added at a predetermined optimal concentration in PBS-T/BSA and incubated for 1 h at RT. The anti-hNGAL antibody had been obtained by immunization of rabbits with a mixture of muteins, and was subsequently coupled to HRP using a kit (EZ-link Plus Activated Peroxidase, Thermo Scientific) according to the manufacturer's instructions, to obtain the antibody-HRP conjugate. After washing, 20 μl fluorogenic HRP substrate (QuantaBlu, Thermo) was added to each well, and the reaction was allowed to proceed for 15 to 60 minutes. The fluorescence intensity of every well on the plate was read using a fluorescence microplate reader (Tecan or Molecular Devices). To evaluate the data, free mutein concentration, c(mutein)free, was calculated based on the standard curve results, and plotted versus ligand concentration, c(Ligand).
A general note: In an ELISA, binding on a coated surface is turned into a signal by an enzyme label.

For experiment [2], the target named is T2, human alpha CGRP (SEQ ID NO: 80) (human, not fully specified).
T2 construct: also called human αCGRP; hαCGRP
T2 peptide: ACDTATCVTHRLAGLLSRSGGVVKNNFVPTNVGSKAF
The description is as above. How it is done:
as §1, §2

Experiment [3] deals with T3, rat beta CGRP (SEQ ID NO: 83) (rat, not fully specified).
T3 construct: also called rat βCGRP; rat β-CGRP
T3 peptide: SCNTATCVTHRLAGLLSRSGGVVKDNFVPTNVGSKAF
The description is as above. How it is done:
as §1, §2

Experiment [4] has as its target T4, human beta CGRP (SEQ ID NO: 81) (human, not fully specified).
T4 construct: also called human βCGRP; hβCGRP
T4 peptide: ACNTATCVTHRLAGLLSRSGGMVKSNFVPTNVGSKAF
Described as above. How it is done:
as §1, §2

Experiment [5] concerns the target T1, rat alpha CGRP (SEQ ID NO: 82). Nature of the experiment: cell-based or functional assay.
Experiment [6] has as its target T4, human beta CGRP (SEQ ID NO: 81). Nature of the experiment: cell-based or functional assay.
In experiment [7] the target is T2, human alpha CGRP (SEQ ID NO: 80). Nature of the experiment: cell-based or functional assay.
In experiment [8] the target is T3, rat beta CGRP (SEQ ID NO: 83). Nature of the experiment: cell-based or functional assay.
The target of experiment [9] is T2, human alpha CGRP (SEQ ID NO: 80). Nature of the experiment: SPR Biacore 37 °C, mutein captured as ligand, sample PL1827 (ha CGRP) injected, 1:1 fit; repeat run 130903_NAN-DS-058 (not the run of Table 2) [contd]. How it is done:
(§3) The Biotin CAPture Kit (GE Healthcare) was used to immobilize biotinylated lipocalin muteins to a chip surface. Muteins were biotinylated using standard NHS chemistry. Undiluted Biotin CAPture Reagent (streptavidin conjugated with ss-DNA oligo) was captured on a Sensor Chip CAP with the pre-immobilized complementary ss-DNA oligo. Thereafter, biotinylated muteins at 1 μg/mL were applied for 300 s at a flow rate of 5 μL/min.
(§4) CGRP species were applied in three concentrations of 30 nM, 3 nM and 0.3 nM at a flow rate of 30 μL/min or in a single concentration of 25 nM per cycle as shown in FIG. 2. The dilutions were injected with association times of 180 s and dissociation times of 5400 sec to obtain ka and kd information. Regeneration of the chip surface was achieved by injecting 6 M Guanidinium-HCl+0.25 M NaOH (120 s) with a flow rate of 10 μL/min. Injection of regeneration solutions was followed by an extra wash step with HBS-EP+(1×; BR-1006-69; GE Healthcare) running buffer and a stabilization period of 120 s.
(§5) The data were double-referenced by subtraction of the corresponding signals measured for the control channel (loaded with Biotin CAPture reagent only) and by subtraction of buffer injections from the binding responses. Association rate constant ka and dissociation rate constant kd for the binding reaction were determined using Biacore T200 Evaluation Software V2.0 for data processing and kinetic fitting. The data were globally fit with 1:1 binding model.
On the technique in general: In SPR one partner is held on a chip, and binding of the other changes the refractive index at the surface.

Experiment [10] addresses T1, rat alpha CGRP (SEQ ID NO: 82). Nature of the experiment: SPR, 37 C, mutein captured, CGRP analyte. Put shortly: (§6)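 Biotinylated lipocalin muteins were captured on streptavidin-oligo CAP chip, and CGRP was injected at 30, 3 and 0.3 nM or at a single 25 nM at 37 °C (180 s association, 5400 s dissociation) in HBS-EP+. Double-referenced sensorgrams were globally fit to a 1:1 model for ka and kd.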

The target of experiment [11] is T4, human beta CGRP (SEQ ID NO: 81). Nature of the experiment: SPR, 37 C, mutein captured, CGRP analyte. The method, boiled down:
as §6

Experiment [12] addresses T2, human alpha CGRP (SEQ ID NO: 80). Nature of the experiment: SPR, 37 C, mutein captured, CGRP analyte. Put shortly: as §6
Experiment [13] concerns the target T3, rat beta CGRP (SEQ ID NO: 83). Nature of the experiment: SPR, 37 C, mutein captured, CGRP analyte. Put shortly: as §6
Experiment [14] has as its target T1, rat alpha CGRP (SEQ ID NO: 82). Nature of the experiment: SPR Biacore 37 °C, mutein captured as ligand, ra CGRP (1-37) injected, 1:1 fit; repeat run 130208_NAN-DS-047 (not the run of Table 2) [contd]. How it is done:
as §3, §4, §5

Experiment [15] has as its target T4, human beta CGRP (SEQ ID NO: 81). Nature of the experiment: SPR Biacore 37 °C, mutein captured as ligand, hb CGRP (1-37) injected, 1:1 fit; repeat run 130208_NAN-DS-047 (not the run of Table 2) [contd]. How it is done: as §3, §4, §5
Experiment [16] deals with T3, rat beta CGRP (SEQ ID NO: 83). Nature of the experiment: SPR Biacore 37 °C, mutein captured as ligand, rb CGRP (1-37) injected, 1:1 fit; repeat run 130208_NAN-DS-047 (not the run of Table 2) [contd]. How it is done: as §3, §4, §5
For experiment [17], the target named is T2, human alpha CGRP (SEQ ID NO: 80). Nature of the experiment: SPR Biacore 37 °C, mutein captured as ligand, ha CGRP (1-37) injected, 1:1 fit; repeat run 130208_NAN-DS-047 (not the run of Table 2) [contd]. How it is done:
as §3, §4, §5

B1: lipocalin mutein SEQ ID NO: 6 (designed binder)
chain: QDSTSDLIPAPPLSKVPLQQNFQDNQFHGKWYVVGIAGNWWLREDKDPLKMYATIYELKEDKSYNVTHVMFMTKKCDYTIRTFVPGSQPGEFTLGNIKSIPGMTSLLVRVVSTNYNQHAMVFFKFVWQNREWFHITLYGRTKELTSELKENFIRFSKSLGLPENHIVFPVPIDQCIDGSAWSHPQFEK
By IC50 is commonly meant the concentration that gives 50% inhibition. For B1, the half-maximal inhibitory concentration (IC50) amounted to 0.77 nM in experiment [1], 3.1 nM in experiment [2] and 1.6 nM in experiment [3].

B2: lipocalin mutein SEQ ID NO: 2 (designed binder)
chain: QDSTSDLIPAPPLSKVPLQQNFQDNQFHGKWYVVGEAGNWGLREDKDPKKMAATIYELKEDKSYNVTDVQFIEKKCDYWIGTFVPGSQPGEFTLGAIKSEPGQTSNLVRVVSTNYNQHAMVFFKEVWQNRELFWITLYGRTKELTSELKENFIRFSKSLGLPENHIVFPVPIDQCIDGSAWSHPQFEK
With B2, the IC50 in experiment [1] was found to be 35 nM; in experiment [4], 46 nM; in experiment [2] it was 55 nM; in [3] it was 47 nM.

B3: lipocalin mutein SEQ ID NO: 3 (designed binder)
chain: QDSTSDLIPAPPLSKVPLQQNFQDNQFHGKWYVVGFAGNMWLREDKDPFKMGATIYELKEDKSYNVTWVWFEAKKCDYGINTFVPGSQPGEFTLGGIKSPPGMTSHLVRVVSTNYNQHAMVFFKEVFQNREWFWITLYGRTKELTSELKENFIRFSKSLGLPENHIVFPVPIDQCIDGSAWSHPQFEK
B3: the IC50 was found to be 14 nM in experiment [4], 7.5 nM in experiment [2] and 12 nM in experiment [3].

B4: lipocalin mutein SEQ ID NO: 14 (designed binder)
chain: QDSTSDLIPAPPLSKVPLQQNFQDNQFHGKWYVVGRAGNDALREDKDPEKMEATIYELKEDKSYNVTDVGFVQKKCMYVIHTFVPGSQPGEFTLGNIKSYPGVTSALVRVVSTNYNQHAMVFFKLVKQNRELFEITLYGRTKELTSELKENFIRFSKSLGLPENHIVFPVPIDQCIDGSAWSHPQFEK
notes: biotinylated by NHS chemistry for capture in SPR
A word on the koff: it is a measure of how fast the partners let go of each other. Usually kon stands for the rate constant with which the complex forms. A lower kon goes with slow association. As usually defined, the Kd is the equilibrium constant for the complex coming apart. Regarding B4, the “IC50, CGRP-induced cAMP production, L6 cells” value in experiment [5] stood at 0.12 nM; in experiment [8], 0.09 nM. For the same molecule, the “IC50, CGRP-induced cAMP production, SK-N-MC cells” value in experiment [6] stood at 1.5 nM; in [7] it was 0.15 nM. Also, the koff came to 0.000183 s⁻¹ in experiment [9]; 0.000339 s⁻¹ in experiment [10]; 0.000141 s⁻¹ in [11]; 0.000141 s⁻¹ in experiment [12]; 0.000181 s⁻¹ in experiment [13]. For the same molecule, the kon in experiment [9] came to 3.44e+06 M⁻¹ s⁻¹; in experiment [10] it was 1.19e+06 M⁻¹ s⁻¹; in [11] it was 4.56e+06 M⁻¹ s⁻¹; in experiment [12], 2.56e+06 M⁻¹ s⁻¹; in experiment [13], 1.69e+06 M⁻¹ s⁻¹. In addition, the Kd was 0.29 nM in experiment [10], 0.031 nM in experiment [11], 0.055 nM in experiment [12] and 0.107 nM in experiment [13].

B5: lipocalin mutein SEQ ID NO: 15 (designed binder)
chain: QDSTSDLIPAPPLSKVPLQQNFQDNQFHGKWYVVGRAANDRLREDKDPEKMEATIYELKEDKSYNVTDVGFSRKKCIYVIHTFVPGSQPGEFTLGNIKSYPGTTSGLVRVVSTNYNQHAMVFFKVVGQNRESFEITLYGRTKELTSELKENFIRFSKSLGLPENHIVFPVPIDQCIDGSAWSHPQFEK
notes: as for B4
As to B5, the off-rate (koff) is 0.000295 s⁻¹ in [14]; 0.000274 s⁻¹ in experiment [10]; 0.000273 s⁻¹ in [11]; 0.000238 s⁻¹ in [12]; 0.000193 s⁻¹ in experiment [13]; 0.000309 s⁻¹ in experiment [15]. Moreover, the koff worked out at 0.000178 s⁻¹ in experiment [16] and 0.000256 s⁻¹ in experiment [17]. Besides, the on-rate constant (kon) in experiment [14] came out at 1.38e+06 M⁻¹ s⁻¹; in experiment [10] it was 1.59e+06 M⁻¹ s⁻¹; in experiment [11], 1.53e+07 M⁻¹ s⁻¹; in experiment [12], 6.32e+06 M⁻¹ s⁻¹; in experiment [13] it was 4.98e+06 M⁻¹ s⁻¹; in experiment [15], 1.22e+07 M⁻¹ s⁻¹. Besides, the kon in [16] was determined as 2.31e+06 M⁻¹ s⁻¹; in experiment [17], 5.23e+06 M⁻¹ s⁻¹. For the same molecule, the Kd came out at 0.17 nM in [10], 0.018 nM in experiment [11], 0.038 nM in experiment [12] and 0.039 nM in experiment [13].

B6: lipocalin mutein SEQ ID NO: 5 (designed binder)
chain: QDSTSDLIPAPPLSKVPLQQNFQDNQFHGKWYVVGRAGNAELREDKDPEKMEATIYELKEDKSYNVTDVGFWQKKCIYVIHTFVPGSQPGEFTLGNIKSYPGTTSALVRVVSTNYNQHAMVFFKVVRQNREWFEITLYGRTKELTSELKENFIRFSKSLGLPENHIVFPVPIDQCIDGSAWSHPQFEK
As to B6, the half-maximal inhibitory concentration (IC50) in experiment [1] amounted to 21 nM; in experiment [4] it was 28 nM; in experiment [2], 36 nM; in [3], 27 nM.
